According to the domain aggregation screens of Martell et al. (2025):

Experiment: soluble fraction after stress (log2 fold change); higher = more stays soluble; pooled small domains, quantitative proteomics
Details: stress: 75 degC
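Further: 20 min heating vs room temperature control held 20 min.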

Sequence	soluble fraction (log2)
HMNVDSLIGKKARVLEDIDNLNAKGQVSIDGMEWTARSEDGSEIKKDALVEVVAIEGVKAIVKQ	0.242
HMNVEQQNQARENIKRLMEEQGLSQPKLSEKAGIAFGTLSRILRGKQDLTIQTAEKIADALGLSVYDLAE	0.31
HMNVKVSVDDIARPGLMASGRVTFADGNRGMWYVDEMGRLGIDPEVEGYQPSEADIQAFQRELQSVMES	-0.00333
HMNVNSQQINDLEKSIQKFFDKDIKNYLNQNLSNDRMISKNEIDKIILLYYGSDKEPTLDEIKSIFN	-0.216
HMNVNTHKTLILNSTFQPLSLATPQRALALLFSKKINVLKESDIKLRSVGQSVAIPKVAVLTYFVKA	-0.409
HMNVPFGYTIKDGLLVEQPDEKAILDNILTWKKGQMTVAEIAKKTGMETWKIYGILNYWRNK	-1.14
HMNVRAYKVSKESELTVEEKLEAVRGYGVADLLYVIREFEENPGKYEPEVIKLIVQQLTDKGIM	0.0392
HMNVRRSRTHEKVTTYQGYDIFINKEPNQRGMFTSAPMRGDNEYSNLRGEGKSKQDAVNMTKEKIDEIAA	0.748
HMNVSVSITKELQVYINDERISSSALESTLKSKLAGIENPTIILRAEEGVPIEKAVNVMDIANRNRYKIVL	-1.32
HMNVYAGTMINVVGLQVEDAASRLRGLFYSVKIVEEESQEPDGKVLRQNIAEGTKDLEAWTLVELTVSKYV	-2.73
HMNVYEVKFGDTLDEIIKTYLFDIPVKKSILRQAVILANPHAFRRNNPHWMYSDRQLKLPELQDIRRAIF	-0.317
HMNYGDVIEGQIMHVDRDELLVDIGSKSEGIIPAREFSTLTDEERAALSVGDHVLVFVVQAENQEGQAV	0.297
HMNYIEWKNTFKKYLYLLPIKEEKETLAYFDEQYNKLNPKDLDNVENIFSDPIDKAAFVVAFYLEMEDEIK	-0.895
HMNYIGADAAKNMAAADAQVDTANASFSGANLGEKNGLSYYQVDFTANGREYHYAIDAMTGTVIESSSAAS	0.122
HMNYNEKGEYTRTLTSGSETAVMTYRNFGETLDVALFKNGVQTDSLRLIKSEPGVLYRQSNGQFEKI	-0.158
HMNYSIVNVGFNNKSLFLRSAPGYSASRLLLPFATERAFVRETLSNGWSRVIVRGTEGYLPTEYVAD	0.345
HMNYSKQRETILKVLRSTRSHPSVNWIYENVKKEIPDVGLATVYRNLKQLEAAGEIMRIQGDFPEERWDGF	-1.65
HMNYTALLNNFSENMKKRRVELSLSQKELASIVGVSVRTIQNYENKKTIPTSAVMESISIALDMGLEKMID	-1.91
HMNYTQAQIDRANAVSLEDFLRTQGETLIKSGREYRWKEHDSLTVRGNKWFRHSQSKGGYPIDFVMEFTA	0.108

Sequence	soluble fraction (log2)
HMNYYYKDNQYWYVGFRYDERLVKEIKRFVGAGYNPENKEWYIPFTLPTVAPLQKWLHDNGFVEGMNYYP	-2.56
HMPAAFALLTDREREIAALIAQRLTNREIAEKLYLSEGSVKQYVNQLYAKLGIEGDTRTKRRRLAEQAK	-0.641
HMPAAKARTWQEATHAFQRDFLLETLRRARFNAADAADQLGLARPALYTTAKRLGLDLVAERQRWEAEAH	-0.668
HMPAAPVFLQKDLLDAGLIGQADSAARREKLGKILGIGYGNGKVMLQRLNSFGIERDAFEQAVQE	0.081
HMPAASDALAGELAQIARLDIAKLLAGDLSEADWSRITSATVQLSERHPDASDELTALVERIDTAYSARAT	0.0397
HMPAEGWEASGDTWRYRQKDGSYITNAWVQDTDGKWYYFDESSLMVRNQTTSDGYYVGEDGVWTET	-0.136
HMPAELGVVVRNANLRSGPGTKYAIVGSAPAGTTVRIAGTNKAGDWYHLSSGRWIAAFLVDRN	-1.99
HMPAERLSMRKIYEILRLKYGHGLSNREVALSVSVSRSTVADYLLRAQAAGLSWPLPDGLDETGLEQRLFP	-3.96
HMPAFGALTLRQRDLVELIAQGLDNSQIAARLGLAEKTVRNHITMIFNKLEMENRSQVIVRARESGFGAVR	-1.87
HMPAKIIKKSFVYNPIHRDTEYLAQFLQGEGQVSASGDKLVYYGTVEDISRIKSVLQSVDTPS	0.169
HMPALATKDSVLDGRAEVVSYVRDTSVFYLRVRVPQKQGYRSRRIDGVSTLPEAITKALDTYMDLGT	-2.6
HMPALELLVESKKPLLIHGEKIAEDINLFDREKYFIDDELIRIVKEFPSLKIILEHVSSKYGAD	-2.18
HMPAMYKAERMNQILSILADQGDVDVGTLARQFGVSLVTIRKDLTYLESSGQLVRTHGGAIAVA	-0.707
HMPASVEYIRLAAEQMTGQQVTIIEQPGNYAFILRIHLNDIYSLDLAALRARIDELKPAHLTYTVEQYD	-2.86
HMPATTMMVVVDRDLPYGHVLTDRDVRLETRRATSPGASVAFTSIDPVLGQSLTRPLGAGTPVGRADLR	-0.218
HMPAVVEFDVKPRGEVLVDGIWYGRIPELREVELRPGRHHLRVQNAGHPSLDLVVTLEPGERMTVTHTFA	-0.529
HMPDAENFRYRVPYTTEQNRLQYYEGDIRAENADKARDQVMQDAQKYFAQNTAFTPNYIDTDIISLD	0.946
HMPDFAENAVYGKQREDSLYAHAYKHFQLGDTTTVRAAEHLSAEIYPLGQHRPKFMFLNAVTR	0.309
HMPDITAAVARTLQALRADRGWSLDQLAARSGVSKGVLVALEQGRSNPNLATLARIGDAFGVPVTLLVDL	-1.45
